Test results published in patent publication US20190248877A1 (Hoffmann-La Roche, published 2019).

Tests used:
Test in all cases: SPR ProteOn XPR36, biotinylated antigen on NLC chip, Fab as analyte, 25 C
[1] = target: GST huTNCfn5 mu A124 BC hu fn6 B (human fn5 and fn6, murine extra splice …, biotin on the C-terminal avi-tag (BirA, site-specific))
Method: (§1) Immobilization of antigens (ligand): Recombinant antigens were diluted with PBST (10 mM phosphate, 150 mM sodium chloride pH 7.4, 0.005% Tween 20) to 10 μg/ml, then injected at 30 μl/minute in vertical orientation. Injection of analytes: For ‘one-shot kinetics’ measurements, injection direction was changed to horizontal orientation, two-fold dilution series of purified Fab were injected simultaneously along separate channels 1-5, with association times of 200 s, and dissociation times of 240 s, respectively. Buffer (PBST) was injected along the sixth channel to provide an “in-line” blank for referencing. Association rate constants (kₒₙ) and dissociation rate constants (koff) were calculated using a simple one-to-one Langmuir binding model in ProteOn Manager v3.1 software by simultaneously fitting the association and dissociation sensorgrams. The equilibrium dissociation constant (KD) was calculated as the ratio koff/kₒₙ.

[2] = target: T1, GST huTNC fn5 A1234 fn6 B (human, biotin on the C-terminal avi-tag (BirA, site-specific))
T1 chain: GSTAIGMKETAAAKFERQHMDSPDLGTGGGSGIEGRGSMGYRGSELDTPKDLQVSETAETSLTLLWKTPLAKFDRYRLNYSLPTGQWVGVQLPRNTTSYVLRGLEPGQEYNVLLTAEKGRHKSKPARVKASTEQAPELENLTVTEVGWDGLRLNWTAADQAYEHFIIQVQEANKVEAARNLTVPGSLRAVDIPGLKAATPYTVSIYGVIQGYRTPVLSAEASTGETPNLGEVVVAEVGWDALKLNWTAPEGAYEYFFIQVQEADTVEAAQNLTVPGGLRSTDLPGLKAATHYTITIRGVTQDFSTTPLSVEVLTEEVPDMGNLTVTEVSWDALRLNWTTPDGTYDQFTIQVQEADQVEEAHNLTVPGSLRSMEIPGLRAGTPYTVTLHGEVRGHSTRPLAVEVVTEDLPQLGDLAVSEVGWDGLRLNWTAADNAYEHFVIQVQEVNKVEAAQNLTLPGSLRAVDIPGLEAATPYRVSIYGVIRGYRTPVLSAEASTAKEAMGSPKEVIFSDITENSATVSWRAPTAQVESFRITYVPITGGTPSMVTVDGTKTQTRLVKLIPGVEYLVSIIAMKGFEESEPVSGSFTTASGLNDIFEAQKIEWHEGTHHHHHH
Method: as §1

huTNC A1 B = target: T2, huTNC A1 B (human)
T2 chain: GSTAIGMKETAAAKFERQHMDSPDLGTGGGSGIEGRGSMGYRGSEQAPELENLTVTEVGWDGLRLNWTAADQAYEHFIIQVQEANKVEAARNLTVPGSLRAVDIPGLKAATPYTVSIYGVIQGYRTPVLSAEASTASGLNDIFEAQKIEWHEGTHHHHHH
Method: as §1

huTNC A4 B = target: T3, huTNC A4 B (human, biotin on the C-terminal avi-tag (BirA, site-specific))
T3 chain: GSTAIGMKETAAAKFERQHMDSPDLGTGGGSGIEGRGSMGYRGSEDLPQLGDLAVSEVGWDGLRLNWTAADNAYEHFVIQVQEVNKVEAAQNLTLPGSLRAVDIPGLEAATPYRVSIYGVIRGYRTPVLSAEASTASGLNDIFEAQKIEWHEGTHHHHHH
Method: as §1

[3] = target: T4, GST huTNC fn5 A1234 BC fn6 B (human, UniProt P24821 984-1798, biotin on the C-terminal avi-tag (BirA, site-specific))
T4 construct: also called Human GST-fused TnC fn5 A1234 BC fn6
T4 sequence: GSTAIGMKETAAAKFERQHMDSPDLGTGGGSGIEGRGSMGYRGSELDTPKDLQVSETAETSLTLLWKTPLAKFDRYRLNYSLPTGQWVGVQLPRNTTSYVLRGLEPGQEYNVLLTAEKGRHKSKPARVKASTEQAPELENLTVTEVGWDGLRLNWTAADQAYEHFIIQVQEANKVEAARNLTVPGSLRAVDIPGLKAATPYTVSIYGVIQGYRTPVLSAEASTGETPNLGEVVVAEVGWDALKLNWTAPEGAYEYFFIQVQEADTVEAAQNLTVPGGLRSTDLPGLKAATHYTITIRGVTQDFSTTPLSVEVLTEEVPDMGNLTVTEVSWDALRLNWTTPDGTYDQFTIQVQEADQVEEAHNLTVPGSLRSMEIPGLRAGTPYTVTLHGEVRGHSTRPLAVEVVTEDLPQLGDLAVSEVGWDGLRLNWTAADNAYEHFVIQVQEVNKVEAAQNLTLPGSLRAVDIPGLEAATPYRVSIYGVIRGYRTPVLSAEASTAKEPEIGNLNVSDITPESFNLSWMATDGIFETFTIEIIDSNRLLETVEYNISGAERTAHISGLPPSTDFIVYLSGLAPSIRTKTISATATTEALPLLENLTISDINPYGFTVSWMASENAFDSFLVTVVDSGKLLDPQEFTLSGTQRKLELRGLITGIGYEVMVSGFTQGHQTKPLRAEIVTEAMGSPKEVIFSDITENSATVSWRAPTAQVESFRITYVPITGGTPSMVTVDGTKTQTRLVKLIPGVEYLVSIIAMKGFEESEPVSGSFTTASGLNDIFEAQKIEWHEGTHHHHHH
Method: as §1

B1: anti-TnC clone 18D4 Fab fragment (Fab, V domains shown)
VH: QVQLVQSGAEVKKPGSSVKVSCKASGGTFSSYAISWVRQAPGQGLEWMGGIIPIFGTANYAQKFQGRVTITADKSTSTAYMELSSLRSEDTAVYYCAKGNFYGGLDYWGQGTTVTVSS
VL: DIQMTQSPSTLSASVGDRVTITCRASQSISSWLAWYQQKPGKAPKLLIYDASSLESGVPSRFSGSGSGTEFTLTISSLQPDDFATYYCQQNKKFPSGTFGQGTKVEIK
Q: Which Kd [1] does the source give for B1 here?
A: The Kd was 11.2 nM.

Q: And the Kd [2]?
A: Its Kd is 5 nM.

Q: What about the Kd (huTNC A1 B) of the same binder?
A: The Kd was 5.6 nM.

Q: What about the Kd (huTNC A4 B) of the same binder?
A: The Kd was 2 nM.

Q: What about the Kd [3] of the same binder?
A: The Kd was 4 nM.
